In US20190112392A1:
Positions count from the first letter of the chain named. One block for each binder: values may come before it.

Columns and labels:
[1] = biological target: EGFR and CEACAM5 co-expressed on LS174T and LoVo cells (UniProt P00533); assay: cell-based or functional assay
[2] = biological target: EGFR and CEACAM5 co-expressed on LS174T and LoVo cells (UniProt P00533); assay: flow cytometry, LoVo cells
[3] = biological target: EGFR and CEACAM5 co-expressed on LS174T and LoVo cells (UniProt P00533); assay: flow cytometry, LS174T cells
[4] = biological target: EGFR and CEACAM5 co-expressed on LS174T and LoVo cells (UniProt P00533); assay: flow cytometry, LS174T cells; LS174T cells
[5] = biological target: human TCR(2XN9)/CD3 expressed on CHO-K1 cells (human); assay: flow cytometry, CHO-K1 human TCR(2XN9)/CD3 cells
[6] = biological target: soluble recombinant human TCR alpha/beta (2XN9)-zipper protein (human); assay: ELISA, coated soluble human TCR(2XN9)-zipper
[7] = biological target: human TCR(2IAN)/CD3 expressed on HEK293H cells (human); assay: flow cytometry, HEK293H human TCR(2IAN)/CD3 cells
[8] = biological target: soluble recombinant human TCR alpha/beta (2XN9)-zipper protein (human); assay: BLI (Octet RED384), immobilized human sTCR(2XN9)-zipper, 1:1 model

B1: T017000107 (protein)
chain: EVQLVESGGGLVQAGGSLRLSCAASGRTFSSYVMGWFRQATGKEREFVATIAWDSGSTYYADSVKGRFTISRDNAKNTVHLQMNSLKPEDTAVYYCAASYNVYYNNYYYPISRDEYDYWGQGTLVTVSSGGGGSGGGGSGGGGSGGGGSGGGGSGGGGSGGGGSEVQLVESGGGSVQAGGSLRLSCAASGDTYGSYWMGWFRQAPGKEREGVAAINRGGGYTVYADSVKGRFTISRDTAKNTVYLQMNSLRPDDTADYYCAASGVLGGLHEDWFNYWGQGTLVTVSSGGGGSGGGGSGGGGSGGGGSGGGGSGGGGSGGGGSEVQLVESGGGLVQPGGSLRLSCVASGDVHKINFLGWYRQAPGKEREKVAHISIGDQTDYADSAKGRFTISRDESKNMVYLQMNSLKPEDTAVYFCRAFSRIYPYDYWGQGTLVTVSSGAADYKDHDGDYKDHDIDYKDDDDKGAAHHHHHH
IC50, xCELLigence human T cell mediated killing of LS174T cells, E:T 15, 30-40 h [1]: 10 nM
IC50, xCELLigence human T cell mediated killing of LS174T cells, E:T 15, 50-60 h [1]: 5.3 nM
IC50, xCELLigence human T cell mediated killing of LoVo cells, E:T 15, 30-40 h [1]: 0.3 nM
IC50, xCELLigence human T cell mediated killing of LoVo cells, E:T 15, 50-60 h [1]: 0.061 nM
EC50 [2]: 3.2 nM
Top [2]: 88600
Top [3]: 64600
EC50 [4]: 11 nM

B2: T017000031 (bispecific antibody)
chain: EVQLVESGGGLVQPGGSLRLSCITSGETFKINIWGWYRQAPGKQRELVASLTIGGATNYADSVKGRFTISEDSAKNTVYLQMNSLKPEDTAVYFCNAKSRLYPYDYWGQGTLVTVSSGGGGSGGGGSGGGGSGGGGSGGGGSGGGGSGGGGSEVQLVESGGGLVQPGGSLRLSCTFSGGTFSSYTMGWFRQAPGKEREFVAEVRWGGVTTYSNSLKDRFSISEDSVKNAVYLQMNSLKPEDTAVYYCAAVRQMYMTVVPDYWGQGTLVTVSSGAADYKDHDGDYKDHDIDYKDDDDKGAAHHHHHH
EC50 [5]: 20 nM

B3: T017000055 (bispecific antibody)
chain: EVQLVESGGGLVQPGGSLRLSCTFSGGTFSSYTMGWFRQAPGKEREFVAEVRWGGVTTYSNSLKDRFSISEDSVKNAVYLQMNSLKPEDTAVYYCAAVRQMYMTVVPDYWGQGTLVTVSSGGGGSGGGGSGGGGSGGGGSGGGGSGGGGSGGGGSEVQLVESGGGLVQPGGSLRLSCAASGDVHKINILGWYRQAPAKEREMVAHITIGDATDYADSAKGRFTISRDEAKNMVYLQMNSLKPEDTAVYFCRAYSRIYPYNYWGQGTLVTVSSGAADYKDHDGDYKDHDIDYKDDDDKGAAHHHHHH
EC50 [5]: 110 nM

B5: T017000038 (bispecific antibody)
chain: EVQLVESGGGLVQPGGSLRLSCAASGEIGRINFYRWYRQAPGNQREVVATITIADKTDYADSAKGRFTISRDESRNMVYLQMSSLKPEDTAVYFCHAGSRLYPYDYWGQGTLVTVSSGGGGSGGGGSGGGGSGGGGSGGGGSGGGGSGGGGSEVQLVESGGGLVQPGGSLRLSCTFSGGTFSSYTMGWFRQAPGKEREFVAEVRWGGVTTYSNSLKDRFSISEDSVKNAVYLQMNSLKPEDTAVYYCAAVRQMYMTVVPDYWGQGTLVTVSSGAADYKDHDGDYKDHDIDYKDDDDKGAAHHHHHH
EC50 [5]: 17 nM

B6: T017000042 (bispecific antibody)
chain: EVQLVESGGGLVQPGGSLRLSCAASGDVHKINILGWYRQAPAKEREMVAHITIGDATDYADSAKGRFTISRDEAKNMVYLQMNSLKPEDTAVYFCRAYSRIYPYNYWGQGTLVTVSSGGGGSGGGGSGGGGSGGGGSGGGGSGGGGSGGGGSEVQLVESGGGLVQPGGSLRLSCTFSGGTFSSYTMGWFRQAPGKEREFVAEVRWGGVTTYSNSLKDRFSISEDSVKNAVYLQMNSLKPEDTAVYYCAAVRQMYMTVVPDYWGQGTLVTVSSGAADYKDHDGDYKDHDIDYKDDDDKGAAHHHHHH
EC50 [5]: 17 nM

B7: T017000074 (bispecific antibody)
chain: B6 chain with A23V, I33F, A42G, M47K, T52S, A56Q, A74S, Y98F, N105D
EC50 [5]: 16 nM

B9: T0170061G01 (VHH, not shown: small tags and cut ends)
VHH: EVQLVESGGGLVQPGGSLRLSCAASGEIGRINFYRWYRQAPGNQREVVATITIADKTDYADSAKGRFTISRDESRNMVYLQMSSLKPEDTAVYFCHAGSRLYPYDYWGQGTQVTVSS
EC50 [6]: 52 nM
EC50 [5]: 31 nM
EC50 [7]: > 100 nM
MCF at 1 µM [7]: 10000 MCF

B11: T0170056G05 (VHH, not shown: small tags and cut ends)
VHH: EVQLVESGGGLVQPGGSLRLSCVASGDVHKINFLGWYRQAPGKEREKVAHISIGDQTDYADSAKGRFTISRDESKNMVYLQMNSLKPEDTAVYFCRAFSRIYPYDYWGQGTLVTVSS
MCF at 1 µM [7]: 86500 MCF
kon [8]: 50000 M⁻¹ s⁻¹

B13: T017000068 (bispecific antibody)
chain: EVQLVESGGGLVQPGGSLRLSCTFSGGTFSSYTMGWFRQAPGKEREFVAEVRWGGVTTYSNSLKDRFSISEDSVKNAVYLQMNSLKPEDTAVYYCAAVRQMYMTVVPDYWGQGTLVTVSSGGGGSGGGGSGGGGSGGGGSGGGGSGGGGSGGGGSEVQLVESGGGLVQPGGSLRLSCITSGETFKINIWGWYRQAPGKQRELVASLTIGGATNYADSVKGRFTISEDSAKNTVYLQMNSLKPEDTAVYFCNAKSRLYPYDYWGQGTLVTVSSGAADYKDHDGDYKDHDIDYKDDDDKGAAHHHHHH
EC50 [5]: 190 nM

Results, then the binder that gave them:

EC50 [5]: 78 nM
B4: T017000076 (bispecific antibody)
chain: B3 chain with A178V, I188F, A197G, M202K, T207S, A211Q, A229S, Y253F, N260D

EC50 [6]: 16 nM
EC50 [5]: 12 nM
EC50 [7]: > 100 nM
MCF at 1 µM [7]: 31200 MCF
B8: T0170068G05 (VHH, not shown: small tags and cut ends)
VHH: VQLVEESGGGLVQPGGSLRLSCITSGETFKINIWGWYRQAPGKQRELVASLTIGGATNYADSVKGRFTISEDSAKNTVYLQMNSLKPEDTAVYFCNAKSRIYPYDYWGRGTQVTVSS

MCF at 1 µM [7]: 91200 MCF
kon [8]: 49000 M⁻¹ s⁻¹
B10: T0170055A02 (VHH, not shown: small tags and cut ends)
VHH: B11 VHH with V23A, F33I, G42A, K47M, S52T, Q56A, S74A, F98Y, D105N

EC50 [5]: 460 nM
B12: T017000051 (bispecific antibody)
chain: EVQLVESGGGLVQPGGSLRLSCTFSGGTFSSYTMGWFRQAPGKEREFVAEVRWGGVTTYSNSLKDRFSISEDSVKNAVYLQMNSLKPEDTAVYYCAAVRQMYMTVVPDYWGQGTLVTVSSGGGGSGGGGSGGGGSGGGGSGGGGSGGGGSGGGGSEVQLVESGGGLVQPGGSLRLSCAASGEIGRINFYRWYRQAPGNQREVVATITIADKTDYADSAKGRFTISRDESRNMVYLQMSSLKPEDTAVYFCHAGSRLYPYDYWGQGTLVTVSSGAADYKDHDGDYKDHDIDYKDDDDKGAAHHHHHH
